“Also recorded” adds a separate entry of the source.
Legend:
[1] = Glycan microarray (RayBio Glycan Array 100); format: binding; settings: biotin-labeled SHAs 20 μg/ml (1×) and 2 μg/ml (0.1×), absence of L-rhamnose
[2] = Glycan microarray (RayBio Glycan Array 100); format: binding; settings: biotin-labeled SHAs 20 μg/ml (1×) and 2 μg/ml (0.1×), absence of L-rhamnose; remark: listed apart in the source
[3] = Glycan microarray (RayBio Glycan Array 100); format: binding; settings: biotin-labeled SHAs 20 μg/ml (1×) and 2 μg/ml (0.1×), absence of L-rhamnose; remark: listed apart in the source
[4] = Glycan microarray (RayBio Glycan Array 100); format: binding; settings: biotin-labeled SHAs 20 μg/ml (1×) and 2 μg/ml (0.1×), absence of L-rhamnose; remark: listed apart in the source
[5] = Glycan microarray (RayBio Glycan Array 100); format: binding; settings: biotin-labeled SHAs 20 μg/ml (1×) and 2 μg/ml (0.1×), absence of L-rhamnose; remark: listed apart in the source
[6] = Glycan microarray (RayBio Glycan Array 100); format: binding; settings: biotin-labeled SHAs 20 μg/ml (1×) and 2 μg/ml (0.1×), absence of L-rhamnose; remark: listed apart in the source
[7] = Glycan microarray (RayBio Glycan Array 100); format: binding; settings: biotin-labeled SHAs 20 μg/ml (1×) and 2 μg/ml (0.1×), absence of L-rhamnose; remark: listed apart in the source
[8] = Glycan microarray (RayBio Glycan Array 100); format: binding; settings: biotin-labeled SHAs 20 μg/ml (1×) and 2 μg/ml (0.1×), absence of L-rhamnose; remark: listed apart in the source
[9] = Solubility of recombinant SHA proteins; format: physicochemical; settings: expressed in E. coli
Description: Due to solubility issues various fusion proteins of the recombinant SHA were prepared and expressed in E. coli. Of those, a yeast SUMO(SMT3)-fusion protein was successfully purified for comparing carbohydrate-binding specificity with that of archived SHA. Briefly, SMT3-fused SHA(A108E) was prepared by insertion at the SMT3 and Ulp1 cleavage sites of pET32b/SHA(A108E). E. Cloni® (Lucigen) was transformed by pET32b/SMT3-SHA(A108E). […] SHA(A108E) was cleaved off from SMT3 bound to the column by incubating with UPL1. The resulting SHA(A108E) was purified by gum arabic gels. The authenticity of SHA(A108E) was confirmed by SDS-PAGE and glycan microarray analyses.
Therefore, a novel construct that encoded an E. coli codon-optimized, His-tagged, Trx-SMT3 (SUMO family protein)-SHA(A108E) fusion protein was expressed. This protein was refolded on the nickel NTA column in the presence of D-galactose, and soluble recombinant SHA (rSHA) was cleaved off from the Trx-SMT3 portion using His-tagged Ulp1 (8). The purified rSHA is shown in FIG. 6C, together with archived SHA. […] The glycan binding was measured using two distinct concentrations of biotin-labeled SHAs (1×: 20 μg/ml and 0.1×: 2 μg/ml) in the absence and presence of 0.2 M L-rhamnose as a competitive inhibitor.

[10] = Glycan microarray (RayBio Glycan Array 100), whole array profile and L-rhamnose competition; format: binding; settings: for carbohydrate-binding specificity compared with archived SHA: side by side on Glycan Array 100
Description: (§1) Glycan microarray analyses—Microarray analysis was performed according to the manufacturer recommendations using RayBio Glycan Array 100 (RayBiotech, Norcross Ga.) slides. Each slide contains four sub-microarrays printed with 100 synthetic glycans. Briefly, 200 μL of 0.1 mg/mL of both archived SHA and rSHA were dialyzed overnight at 4° C. against 1×PBS dialysis buffer to avoid contaminating samples with amines prior to biotinylation. Dialyzed samples were incubated with biotin-containing reaction solution at 22° C. for 30 min. Sub-arrays were blocked for 30 min at 22° C. After biotinylated SHA samples were diluted with 1×PBS, 400 μL of each sample was added to each sub-array. Slide #1 sub-arrays were incubated with 400 μL of 20 μg/mL (1×) or 2 μg/mL (0.1×) SHA, in the absence or presence of 0.2 M L-Rhamnose. Slide #2 sub-arrays were incubated with 400 μL of 20 μg/mL (1×) or 2 μg/mL of rSHA (0.1×), in the absence or presence of 0.2 M L-rhamnose. Slides were incubated for 16 h at 4° C. for highest intensities. Washing was performed according to the manufacturer's protocol, followed by incubation with Cy3 dye-conjugated streptavidin. The slides were incubated at 22° C. for 1 h with gentle shaking, then washed multiple times as recommended. The signals were visualized using an Agilent DNA microarray scanner (Model G2505C; Agilent, Santa Clara, Calif.) at 532 nm for Cy3. Data extraction and analysis was performed after subtraction of the background and normalization to the internal references provided by the manufacturer, using an ImageJ Protein Array Analyzer software (28).
(§2) Therefore, a novel construct that encoded an E. coli codon-optimized, His-tagged, Trx-SMT3 (SUMO family protein)-SHA(A108E) fusion protein was expressed. […] The glycan binding was measured using two distinct concentrations of biotin-labeled SHAs (1×: 20 μg/ml and 0.1×: 2 μg/ml) in the absence and presence of 0.2 M L-rhamnose as a competitive inhibitor.

[11] = Glycan microarray (RayBio Glycan Array 100); format: binding; settings: biotin-labeled SHAs 20 μg/ml (1×) and 2 μg/ml (0.1×), absence of L-rhamnose; remark: listed apart in the source
[12] = Glycan microarray (RayBio Glycan Array 100); format: binding; settings: glycans listed in Table 4
Description: as §1, with “Washing was performed according to the manufacturer's protocol, followed by incubation with Cy3 dye-conjugated streptavidin. The slides were incubated at 22° C. for 1 h with gentle shaking, then washed multiple times as recommended. The signals were visualized using an Agilent DNA microarray scanner (Model G2505C; Agilent, Santa Clara, Calif.) at 532 nm for Cy3. Data extraction and analysis was performed after subtraction of the background and normalization to the internal references provided by the manufacturer, using an ImageJ Protein Array Analyzer software (28).” left out
as §2

[13] = Glycan microarray (RayBio Glycan Array 100); format: binding; settings: biotin-labeled SHAs 20 μg/ml (1×) and 2 μg/ml (0.1×), absence of L-rhamnose; remark: listed apart in the source
[14] = Glycan microarray (RayBio Glycan Array 100); format: binding; settings: biotin-labeled SHAs 20 μg/ml (1×) and 2 μg/ml (0.1×), absence of L-rhamnose; remark: listed apart in the source

B1: rSHA: recombinant SHA(A108E) expressed in E. coli, cleaved from Trx-SMT3 fusion; SEQ ID NO: 25 (protein)
chain: ARTVCYAAHVEGIGWQGAVCDGAVAGTTGQSRRMEAAVIATSGTGGVCANAHLADIGWQGWACAADGKAVTVGTTGQSRRMEALGLQVGNGSVAAQAHVADYGWLNAEGGNPVYVGTTGQSRRMEAVRIWV
modifications: recombinant SHA
Q: Which “binding signal to Gal-α-1,4-Gal-β-1,3-GlcNAc-β-” value [1] does the source give for B1 here?
A: Strong signals

Q: And the “binding signal to Gal-α-1,3-Gal-β-1,3-GlcNAc-β-” value [2]?
A: Strong signals

Q: And the “binding signal to β-Gal-” value [3]?
A: Strong signals

Q: And the “binding signal to Blood B antigen tetrasaccharide” value [4]?
A: Strong signals

Q: And the “binding signal to Gal-α-1,3-Gal-β-1,4-Glc-β-” value [5]?
A: Strong signals

Q: What about the “binding to Gal-α-1,4-Gal-β-1,4-GlcNAc-β-” value [6] of the same molecule?
A: weaker, but still significant, binding

Q: What about the “binding signal to α-Rha-” value [7] of the same molecule?
A: Strong signals

Q: What about the “binding signal to Gal-α-1,3-Gal-β-” value [8] of the same molecule?
A: Strong signals

Q: And the solubility [9]?
A: soluble

Q: What about the “binding to all glycans, except α-Rha, in the presence of L-rhamnose” value ([10]; 0.2 M L-rhamnose as competitive inhibitor) of the same molecule?
A: competitively inhibited

Q: And the “carbohydrate-binding specificity compared with archived SHA” value [10]?
A: identical carbohydrate-binding specificities; also recorded: same glycan specificity profile

Q: What about the “carbohydrate-binding specificity compared with archived SHA” value ([10]; listed as SHA(A108E)) of the same molecule?
A: same carbohydrate-binding specificity

Q: What about the “binding to GaINAc-β-1,3-Gal-β-1,4-Glc-β-” value [11] of the same molecule?
A: weaker, but still significant, binding

Q: And the “binding to the remaining 89 chip-immobilized glycans” value [12]?
A: did not bind

Q: What about the “binding signal to Blood B antigen trisaccharide” value [13] of the same molecule?
A: Strong signals

Q: What about the “binding to Gal-α-1,4-Gal-β-1,4-Glc-β-” value [14] of the same molecule?
A: weaker, but still significant, binding

Source: patent publication US11767351B2, “Recombinant lectin and uses thereof” (CITY OF HOPE, priority 2017, dated 2023)
